Literature values in patent publication US20060183681A1, “Stabilized compositions containing natriuretic peptides” (Bio-Rad Laboratories, Inc., priority 2005, published 2006).

Substance: B-type natriuretic peptide [BNP]
- half-life (t1/2) in vivo: approximately 23 minutes
